Test results from publication PMC11076521, “Structural basis for the intracellular regulation of ferritin degradation” (Nature Communications, 2024).

B1: NCOA4 ferritin-binding fragment (amino acids 383-522), His-tagged (domain or fragment, UniProt Q13772 383-522, looked up)
chain: SMVTEDWLVQNHQDPCKVEEVCRANEPCTSFAECVCDENCEKEALYKWLLKKEGKDKNGMPVEPKPEPEKHKDSLNMWLCPRKEVIEQTKAPKAMTPSRIADSFQVIKNSPLSEWLIRPPYKEGSPKEVPGTEDRAGKQK
notes: No tag cleavage is described; also called NCOA4^FB; NCOA4-383-522; source: E. coli T7 Lys, purified (HisTrap, PD10 desalting)
B2: C-terminally HA-FLAG-tagged NCOA4 (natural protein, UniProt Q13772 1-614, looked up)
chain: MNTFQDQSGSSSNREPLLRCSDARRDLELAIGGVLRAEQQIKDNLREVKAQIHSCISRHLECLRSREVWLYEQVDLIYQLKEETLQQQAQQLYSLLGQFNCLTHQLECTQNKDLANQVSVCLERLGSLTLKPEDSTVLLFEADTITLRQTITTFGSLKTIQIPEHLMAHASSANIGPFLEKRGCISMPEQKSASGIVAVPFSEWLLGSKPASGYQAPYIPSTDPQDWLTQKQTLENSQTSSRACNFFNNVGGNLKGLENWLLKSEKSSYQKCNSHSTTSSFSIEMEKVGDQELPDQDEMDLSDWLVTPQESHKLRKPENGSRETSEKFKLLFQSYNVNDWLVKTDSCTNCQGNQPKGVEIENLGNLKCLNDHLEAKKPLSTPSMVTEDWLVQNHQDPCKVEEVCRANEPCTSFAECVCDENCEKEALYKWLLKKEGKDKNGMPVEPKPEPEKHKDSLNMWLCPRKEVIEQTKAPKAMTPSRIADSFQVIKNSPLSEWLIRPPYKEGSPKEVPGTEDRAGKQKFKSPMNTSWCSFNTADWVLPGKKMGNLSQLSSGEDKWLLRKKAQEVLLNSPLQEEHNFPPDHYGLPAVCDLFACMQLKVDKEKWLYRTPLQM
notes: the discussion calls the NCOA4 of the cellular studies full-length; also called full-length NCOA4; source: HEK293T-FTH1 KO, transiently transfected, in lysate; HeLa-FTH1 KO, in lysate; not shown: HA, C-terminal, kept; FLAG, C-terminal, kept

Legend:
[1] = target: T1, FTH1-S114D (recombinant) (human, UniProt P02794 1-183, S114D); test: ITC; 16 injections of 3 uL NCOA4 into the cell containing ferritin; 25.00 C; 100 mM MOPS, 100 mM NaCl, pH 7.4; one class of independent binding sites; settings: both partners purified
T1 construct: ferritin heavy chain (FTH1), human, phosphomimetic mutant ordered from Twist Bioscience in pET-29b(+); source: E. coli BL21 (DE3), purified (heat treatment, HiTrap Q HP, ammonium sulfate)

[2] = target: T2, FTL S19R, Q26Y, A86D, K106N (L2H mutant, recombinant) (UniProt P02792 1-175, S19R | Q26Y | A86D | K106N); test: as above; settings: both partners purified
T2 construct: ferritin light chain (FTL) with four residues of FTH1 brought into the cleft; mutant ordered from Twist Bioscience in pET-29b(+); also called FTL mutant L2H; source: E. coli BL21 (DE3), purified (heat treatment, HiTrap Q HP, ammonium sulfate)

[3] = target: T3, human FTH1 wild type (recombinant ferritin nanocage) (human, UniProt P02794 1-183); test: as above; settings: both partners purified
T3 construct: ferritin heavy chain (FTH1), human; plasmid from Addgene #122652; Homopolymer cage; also called FTH1-WT; WT-FTH1; source: E. coli BL21 (DE3), purified (heat treatment, HiTrap Q HP, ammonium sulfate); copies: 24

[4] = target: T4, N-terminally MYC-tagged FTH1-S114D (human, UniProt P02794 1-183, S114D); test: co-IP; HEK293T-FTH1 KO cells, transient expression; anti-MYC agarose IP of MYC-FTH1, immunoblot; 50 mM Tris-HCl pH 7.5, 150 mM NaCl, 0.5% Nonidet P40, 1 mM DTT; quantified relative to FTH1-WT, normalized to immunoprecipitated FTH1; settings: partners not purified
T4 construct: ferritin heavy chain (FTH1), NM_002032.3, phosphomimetic mutant synthesized by Twist Bioscience in pTwist EF1 Alpha; source: HEK293T-FTH1 KO, transiently transfected, in lysate; not shown: MYC, N-terminal, kept

[5] = target: T5, N-terminally MYC-tagged FTH1-R23A (human, UniProt P02794 1-183, R23A); test: as above; settings: partners not purified
T5 construct: ferritin heavy chain (FTH1), NM_002032.3, mutant synthesized by Twist Bioscience in pTwist EF1 Alpha; source: HEK293T-FTH1 KO, transiently transfected, in lysate; not shown: MYC, N-terminal, kept

[6] = target: T6, N-terminally MYC-tagged FTH1-R23L (human, UniProt P02794 1-183, R23L); test: as above; settings: partners not purified
T6 construct: ferritin heavy chain (FTH1), NM_002032.3, mutant synthesized by Twist Bioscience in pTwist EF1 Alpha; source: HEK293T-FTH1 KO, transiently transfected, in lysate; not shown: MYC, N-terminal, kept

[7] = target: T7, N-terminally MYC-tagged FTH1-R23I (human, UniProt P02794 1-183, R23I); test: as above; settings: partners not purified
T7 construct: ferritin heavy chain (FTH1), NM_002032.3, mutant synthesized by Twist Bioscience in pTwist EF1 Alpha; source: HEK293T-FTH1 KO, transiently transfected, in lysate; not shown: MYC, N-terminal, kept

[8] = target: T8, N-terminally MYC-tagged FTH1-A19Y (human, UniProt P02794 1-183, A19Y); test: as above; settings: partners not purified
T8 construct: ferritin heavy chain (FTH1), NM_002032.3, mutant synthesized by Twist Bioscience in pTwist EF1 Alpha; source: HEK293T-FTH1 KO, transiently transfected, in lysate; not shown: MYC, N-terminal, kept

[9] = target: T9, N-terminally MYC-tagged FTH1-N22A (human, UniProt P02794 1-183, N22A); test: as above; settings: partners not purified
T9 construct: ferritin heavy chain (FTH1), NM_002032.3, mutant synthesized by Twist Bioscience in pTwist EF1 Alpha; source: HEK293T-FTH1 KO, transiently transfected, in lysate; not shown: MYC, N-terminal, kept

[10] = target: T10, N-terminally MYC-tagged FTH1-S114E (human, UniProt P02794 1-183, S114E); test: as above; settings: partners not purified
T10 construct: ferritin heavy chain (FTH1), NM_002032.3, phosphomimetic mutant synthesized by Twist Bioscience in pTwist EF1 Alpha; source: HEK293T-FTH1 KO, transiently transfected, in lysate; not shown: MYC, N-terminal, kept
T10 sequence (P02794 whole entry S114E): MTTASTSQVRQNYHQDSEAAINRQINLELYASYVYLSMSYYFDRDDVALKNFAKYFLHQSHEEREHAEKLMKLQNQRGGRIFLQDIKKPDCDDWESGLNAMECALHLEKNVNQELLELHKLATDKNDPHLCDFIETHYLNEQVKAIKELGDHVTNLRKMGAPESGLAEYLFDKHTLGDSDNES

T1 sequence (P02794 whole entry S114D): as the sequence (P02794 whole entry S114E) above, with E114D counted along it
T2 sequence (P02792 whole entry S19R/Q26Y/A86D/K106N): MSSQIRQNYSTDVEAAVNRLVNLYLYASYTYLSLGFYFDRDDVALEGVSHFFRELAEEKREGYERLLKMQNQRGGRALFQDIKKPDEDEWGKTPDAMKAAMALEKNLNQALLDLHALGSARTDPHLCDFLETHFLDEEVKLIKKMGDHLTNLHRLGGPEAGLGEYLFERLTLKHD
T3 sequence (P02794 whole entry): as the sequence (P02794 whole entry S114E) above, with E114S counted along it
T5 sequence (P02794 whole entry R23A): as the sequence (P02794 whole entry S114E) above, with R23A, E114S counted along it
T7 sequence (P02794 whole entry R23I): as the sequence (P02794 whole entry S114E) above, with R23I, E114S counted along it
T6 sequence (P02794 whole entry R23L): as the sequence (P02794 whole entry S114E) above, with R23L, E114S counted along it
T4 sequence (P02794 whole entry S114D): as the sequence (P02794 whole entry S114E) above, with E114D counted along it
T9 sequence (P02794 whole entry N22A): as the sequence (P02794 whole entry S114E) above, with N22A, E114S counted along it
T8 sequence (P02794 whole entry A19Y): as the sequence (P02794 whole entry S114E) above, with A19Y, E114S counted along it

Row | Binder | Kd [1] [µM] | dH [1] [kcal/mol] | stoichiometry N [1] | Kd [2] [µM] | dH [2] [kcal/mol] | stoichiometry N [2] | Kd [3] [µM] | dH [3] [kcal/mol] | stoichiometry N [3] | relative interaction by immunoprecipitation (% of FTH1-WT) [4] [%] | relative interaction by immunoprecipitation (% of FTH1-WT) [5] [%] | relative interaction by immunoprecipitation (% of FTH1-WT) [6] [%] | relative interaction by immunoprecipitation (% of FTH1-WT) [7] [%] | relative interaction by immunoprecipitation (% of FTH1-WT) [8] [%] | relative interaction by immunoprecipitation (% of FTH1-WT) [9] [%] | relative interaction by immunoprecipitation (% of FTH1-WT) [10] [%]
1 | B1 | 3.5 | -4.66 | 3 | 5.6 | -5.26 | 1.9 | 2.4 | -5.5 | 2.5 | – | – | – | – | – | – | –
2 | B2 | – | – | – | – | – | – | – | – | – | 111 | 5.35 | 86 | 13 | 8.86 | 3.72 | 113
